Laboratory results taken from patent EP4713370A2 (dated 2026).

T1: CD79b on target B cell lines (Ramos (CD79b+) cells; Daudi cells) (UniProt P40259 29-229, limits assumed)
T1 construct: whole, on cells; On cells CD79b stands in the B cell receptor complex with CD79a; also called Ramos (CD79+) cells; CD79b expression cells
T1 sequence (looked up): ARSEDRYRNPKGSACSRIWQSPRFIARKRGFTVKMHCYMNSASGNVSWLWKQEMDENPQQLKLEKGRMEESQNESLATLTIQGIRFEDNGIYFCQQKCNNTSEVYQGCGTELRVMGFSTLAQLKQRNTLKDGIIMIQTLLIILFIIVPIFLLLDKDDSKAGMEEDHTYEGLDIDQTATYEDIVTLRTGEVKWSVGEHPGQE


Legend:
[1] = molecular target: T1, CD79b on target B cell lines (Ramos …); assay: flow cytometry on Ramos cells, anti-human IgG PE
[2] = molecular target: T2, human NKp46 expressed on cells (primary human NK cells; CHOK1-hNKp46 cells) (human, UniProt O76036 22-304); assay: flow cytometry on purified CD56+ human NK cells, anti-human IgG PE
T2 construct: whole, on cells; also called cell surface expressed NKp46; NCR1

[3] = molecular target: T3, Recombinant human NKp46, His Tag (human NKp46 ECD antigen, aa. 22-254, his-tagged) (human, UniProt O76036 22-255); assay: ELISA on coated NKp46-His, and BLI with antibody on anti-human IgG Fc probe and 11 nM NKp46-His
T3 construct: also called NKp46 extracellular domain (ECD); Acrobiosystems #NC1-H52H4; not shown: His tag

[4] = molecular target: T2, human NKp46 expressed on cells (primary …); assay: flow cytometry on primary human NK cells, rabbit IgG, anti-rabbit IgG FITC

T2 sequence (O76036 22-304): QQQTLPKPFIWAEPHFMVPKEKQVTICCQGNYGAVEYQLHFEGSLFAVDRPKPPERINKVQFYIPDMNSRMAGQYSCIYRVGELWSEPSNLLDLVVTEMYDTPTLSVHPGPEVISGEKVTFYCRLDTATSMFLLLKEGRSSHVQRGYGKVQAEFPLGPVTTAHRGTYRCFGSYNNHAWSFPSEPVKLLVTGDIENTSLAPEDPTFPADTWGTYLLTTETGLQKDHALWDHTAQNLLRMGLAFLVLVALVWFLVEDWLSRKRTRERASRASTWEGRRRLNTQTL
T3 sequence (O76036 other isoform, or with tags, fused parts or gaps): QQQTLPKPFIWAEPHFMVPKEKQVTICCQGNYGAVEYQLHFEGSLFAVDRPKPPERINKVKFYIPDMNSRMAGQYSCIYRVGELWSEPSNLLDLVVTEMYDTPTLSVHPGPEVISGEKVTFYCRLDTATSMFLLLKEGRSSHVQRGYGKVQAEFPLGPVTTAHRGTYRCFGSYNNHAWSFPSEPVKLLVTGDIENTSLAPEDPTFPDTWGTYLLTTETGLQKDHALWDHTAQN

Binder | binding result [1] | binding result [2] | binding result [3] | binding result [4]
ch44G2/ch5-13 Fc-silenced (bispecific antibody, human IgG1, kappa, L234A L235A, LC format, LALAPG silenced Fc; also called CD79b/NKp46 bispecific antibody; 44G2/5-13) heavy: not shown light: DLVMTQTPSSVSAAVGGTVSINCRASEDIENYLAWYQQKPGQPPKLLIYRASTLSSGVSSRFSGSGSGTEFTLTISGVQPDDAATYYCQQGYRNSNVDNPFGGGTEMVVKRTVAAPSVFIFPPSDEQLKSGTASVVCLLNNFYPREAKVQWKVDNALQSGNSQESVTEQDSKDSTYSLSSTLTLSKADYEKHKVYACEVTHQGLSSPVTKSFNRGECGGGGSGGGGSGGGGSGGGGSAYDMTQTPASVEVAVGGTVTIKCQASQSISTALAWYQQKPGQPPKLLIYKASTLASGVSSRFKGSGSGTQFTLTISGVEPADAATYYCQQGYSRSNVDNVFGGGTEVVVKGGGGSGGGGSGGGGSGGGGSQSVEESGGRLVTPGTPLTLTCTVSGFSLSSYHMSWVRQAPGKGLEWIGYILANTDSYYANWAKGRFTISKTSTTVDLKITSPTTEDTATYFCARYDNHDAAYSTLWGPGTLVTVSS | binds | binds |  | 
ch44G2/ch6-1 Fc-silenced (bispecific antibody, human IgG1, kappa, L234A L235A, LC format, LALAPG silenced Fc; also called CD79b/NKp46 bispecific antibody; 44G2/6-1) heavy: not shown light: DLVMTQTPSSVSAAVGGTVSINCRASEDIENYLAWYQQKPGQPPKLLIYRASTLSSGVSSRFSGSGSGTEFTLTISGVQPDDAATYYCQQGYRNSNVDNPFGGGTEMVVKRTVAAPSVFIFPPSDEQLKSGTASVVCLLNNFYPREAKVQWKVDNALQSGNSQESVTEQDSKDSTYSLSSTLTLSKADYEKHKVYACEVTHQGLSSPVTKSFNRGECGGGGSGGGGSGGGGSGGGGSADVVMTQTPASVSEPVGGTITINCQASENIYSSLAWYQQKPGQPPKLLMYDVSDLASGVPSRFSGSGSGTEFALTISDVQPDDAATYFCLGGYPSNNYRMAFGGGTEVVVKGGGGSGGGGSGGGGSGGGGSQSLEESGGGLVQPEGSLTLTCTASGFSFSSSAWICWVRQAPGKGLEWIGCINTVSVNAYYASWAKGRFTISKTSSTTVTLQVTSLTAADTATHFCARNPYNSLRLWGPGTLVTVSS | binds | binds |  | 
ch5-13 (antibody, human IgG1, kappa, V domains shown, Chimeric rabbit/human IgG1; also called chimeric anti-NKp46 antibody ch5-13) VH: QSVEESGGRLVTPGTPLTLTCTVSGFSLSSYHMSWVRQAPGKGLEWIGYILANTDSYYANWAKGRFTISKTSTTVDLKITSPTTEDTATYFCARYDNHDAAYSTLWGPGTLVTVSS VL: AYDMTQTPASVEVAVGGTVTIKCQASQSISTALAWYQQKPGQPPKLLIYKASTLASGVSSRFKGSGSGTQFTLTISGVEPADAATYYCQQGYSRSNVDNVFGGGTEVVVKR |  |  | binds | 
rabbit anti-NKp46 clone 5-13 (expressed and purified as rabbit IgG) (antibody, V domains shown, Rabbit IgG) VH: QSVEESGGRLVTPGTPLTLTCTVSGFSLSSYHMSWVRQAPGKGLEWIGYILANTDSYYANWAKGRFTISKTSTTVDLKITSPTTEDTATYFCARYDNHDAAYSTLWGPGTLVTVSS VL: AYDMTQTPASVEVAVGGTVTIKCQASQSISTALAWYQQKPGQPPKLLIYKASTLASGVSSRFKGSGSGTQFTLTISGVEPADAATYYCQQGYSRSNVDNVFGGGTEVVVK |  |  |  | binds

Further lines, results first:

binding result [1] | binding result [2] | binding result [3] | binding result [4] | Binder
 |  | binds |  | ch3-7 (antibody, human IgG1, kappa, V domains shown, Chimeric rabbit/human IgG1; also called chimeric anti-NKp46 antibody ch3-7) VH: QSLEESGGRLVTPGTPLTLTCTVSGFSPSSYYMSWVRQAPGKGLEYIGIIFSGGSTWYASWAKGRVTISRTSTTVDLKMTSLTTEDTATYFCARGDAVGSGYWGLWGPGTLVTVSS VL: AFELTQTPSSVEAAVGGTVTINCQASQDIYIYLAWYQQKPGQPPKLLIYSASTLASGVSSRFTGSRSGTQFTLTISDLEPADAATYYCQSYDGTSNTGFGGGTEVVVRR
 |  |  | binds | rabbit anti-NKp46 clone 3-7 (expressed and purified as rabbit IgG) (antibody, V domains shown, Rabbit IgG) VH: QSLEESGGRLVTPGTPLTLTCTVSGFSPSSYYMSWVRQAPGKGLEYIGIIFSGGSTWYASWAKGRVTISRTSTTVDLKMTSLTTEDTATYFCARGDAVGSGYWGLWGPGTLVTVSS VL: AFELTQTPSSVEAAVGGTVTINCQASQDIYIYLAWYQQKPGQPPKLLIYSASTLASGVSSRFTGSRSGTQFTLTISDLEPADAATYYCQSYDGTSNTGFGGGTEVVVR
